21 sequences from the DeepSol protein solubility set can be followed below.

A short description of the data set: soluble on expression in E. coli; label from the status in PepcDB or PDB records.
“MNIFVNMRIMVAHTPDPDDAFMFYGMFEGKIRTSNQYEQVIKDIETLNKESKEGKYEVTAISANGYVQVRDLYKLTRSGASFGISYGPIVVARNEIDLSKSRMGVPGFMTSSYLLYRMFGPEAKEYVEIKFDEIPDAILTGKVDAGILIHDEQLTFQKRGLKEVFDIYSAWKSYAGNLPIPLGFNAIRKDLDEDTVNKFLYDFERSIRYAMAHEEEAVKYAMKYARYTDLDLERRFVRMYVNELSIDFGDTGRKALELYYNRAAGKGLIPPFKPEIV”: the “soluble on expression in E. coli” value is given as “not soluble”.
The result for “MPPPNKRQKHARICGFMGTLARKKKEIEQQEALMKLHNLPLTYTEDQYKIVKEESTIYKNRFETAAAKNVELLKATDELKKELEFLKRQPGNQFKVDKKLKSEIDSAEEESKFYKNCFETTAAENVELLKVTDQLKKELEFLKAQQGNQFKVDMKIKSEMESATQSNLILLREKEMWKDRFNDVLSEKLALSARIRNVIGDRSESVEVPNDSNRDIWELREDLEMERSARRKAEEELKILKMTSSRGSMHISRDSTNQTPNEILLSMAIRLDSTSSN” reads “not soluble”; that for “MDSDHNHINGDLAHGFENMVCVRCNDGFSMQDQMVNSSGQVWHSECFVCAQCFEPFPDGIYFEYEGRKYCEHDFHVLFSPCCGKCNEFIVGRVIKAMNASWHPGCFCCEICNKQLADVGFLRNAGRALCRECNEREKAAGHGRYVCHKCHAMIDDGQHIKFRGDSFHPYHFKCKRCNNELTTASREVNGELYCLRCHDTMGIPICGACHRPIEERVIAALGKHWHVEHFVCSVCEKPFLGHRHYERKGLPYCEQHFHKLFGNLCFKCGDPCCGEVFQALQKTWCVKCFSCSFCDKKLDQKTKFYEFDMKPTCKRCYDRFPTELKKRISESLKDRDVENQRRSMSPGPK”, “not soluble”.
With “MSLLLFEQPVDLEKNNEDDTNIKPFAISRHFLLKLLLCGIILIELLLYSKCPKPIDNGPRTIANRSNTYFNGTHDFKTLTILISIDGFHPRLIDAKYTPFLYNLHNLRSPYDMNITTAPYMIPSFPTQTFPNHWSMVTGKYPIEHGIVSNIFWDNFTSSEFRPNNLDARIWSNTADPIWQLLQTESQGEYKVATHMWPGSEVVYEDHGDVPRERMPFYFGKFNQWEKLQDKLAQIFRYIDMPQLKDRPELVISYIPNVDSYGHSFGYDLRDKRLQKLIGEVDGFFLDLIEGLQKRNLLKISNVMIVSDHGMSNVNANDGEHVVVWERVFPADAMSAFISHLYNEGPMMMVCLKNPRDKQWICDLIEAQLEKAYGDEISRKFHVILKEDFDPSWKYFQYDNRKHRYDDRVGDIWILADEYYAIVKEMGDVPIGIMGTHGYNFNNCSDMASIFIGMGPMFNNEVVPPFENIEVYNMLIKASALLGEEKTKKEKSLLQEGHHHHHH”, the “soluble on expression in E. coli” value is “not soluble”.
With “MAHHHHHHMLNVVQATRMSKKQEVKAYGPNVKKGDLVYGVVHIFASFNDTFVHVTDMSGRETYVKVTGGMKVKADRDESSPYAAMMAAQDVVARCKECGINALHVKMRAVGGVRTKSPGPGRPGRPPRARPRRDEDWPHRGCHPDPDRLHPPQGFPPWSPPVRSLRPRVLRTAQQSELTLVTICWFPCVCDLLSFYCREEKKHRPQITEAR”, the “soluble on expression in E. coli” value is reported as “not soluble”.
In the case of “MGSDKIHHHHHHMFLYELFKEQRKLYNFTQEEFYEGIFKKRAASSFEVHNTHDLKVKDLPVLSDRSMMSILEIIHYAKEEFISPYDEDLNSLFDIFQNNTEKENKDYIYKLYKKSIELKEHSIIYWNLYLIIKIQCSEYDSRIVPTDSQDLSELKKMILSKQKFTLYDYKIVTNLSLVFSYKELQPFLSSLFPLDSNAPTVTSEAAYYLLENITTKLVQNRDFESCTEVLNIYNDLLQKFPSYKYKLNYLITYNLVGYFLTNNMDSLNNSIKYVDLLGDLENVELAKLMKDNIYLMISKKNNGSMSKPDTLLTKENNHIKLNEKKITKRLE”, the “soluble on expression in E. coli” value is “not soluble”.
Consider “MWYHRLSHLHSRLQDLLKGGVIYPALPQPNFKSLLPLAVHWHHTASKSLTCAWQQHEDHFELKYANTVMRFDYVWLRDHCRSASCYNSKTHQRSLDTASVDLCIKPKTIRLDETTLFFTWPDGHVTKYDLNWLVKNSYEGQKQKVIQPRILWNAEIYQQAQVPSVDCQSFLETNEGLKKFLQNFLLYGIAFVENVPPTQEHTEKLAERISLIRETIYGRMWYFTSDFSRGDTAYTKLALDRHTDTTYFQEPCGIQVFHCLKHEGTGGRTLLVDGFYAAEQVLQKAPEEFELLSKVPLKHEYIEDVGECHNHMIGIGPVLNIYPWNKELYLIRLFKEKQNTVNRQWNSSLQCDIPERILTYRHFVSGTSIEHRGSLI”, for which the “soluble on expression in E. coli” value is given as “not soluble”.
For the sequence “MSLDAPYFSPRRLGHVNLIVRDTDASMRFYQDVVGFEEVYRVPAIGGGFLSNGNTHHDVGMVQSSGPSGKGRPPGLNHLAFELETEVALVEGYERSRQDGLAFERTLDHDIAHSAYCADPDGNSCELYADVVREWRTARTGEVTKPKPAWWPGKTPPNPHRNYHAEPQLRQVAHAAFHPLRTQHATLVVADLRESIAFYTRRIGLALQAQGDGYALLGGRCGRRDVALVQARGQLSPGYHHVGLEVADAGELLQAAQRWREQGGQVERLIEHPLRTAVYITDPDGLLLQFFVDHAADHAAWRHLDREQALWIVEGHHHHHH”, the “soluble on expression in E. coli” value is reported as “not soluble”.
With “MSKCSADETPVCCCMDVGTIMDNSDCTASYSRVFATRAEAEETLAALTEKARSVESEPCQITPTFTEESEGVRLDIDFVFACEAETLIFQLGLRLEHHHHHH” the entry was “not soluble”; with “SFVPSQKTYQGNYGFHLGFLQSGTAKSVMCTYSPPLNKLFCQLAKTCPVQLWVSATPPAGSRVRAMAIYKKSQHMTEVVRRCPHHERCSDGDGLAPPQHLIRVEGNLYPEYLEDRQTFRHSVVVPYEPPEAGSEYTTIHYKYMCNSSCMGGMNRRPILTIITLEDSSGNLLGRDSFEVRVCACPGRDRRTEEENFRKKEVL”, “soluble”; with “MTAQTHNDVAVCWNQNANQWTSDVRNGYDVYRDFFTLPAFLQFLPTMADLNVIDFGCGEGSNTRHFAQMGAKVVGIDISNGLIEHARQAERVDPVGITYKIVSYSSDTGFPASSFDAVVSTMALMDGPDLQGAMHEAYRLLRPGGFVAFSVLHPCFITPGWQWQKDENGQTTGLCTSRYFDKSGFTENWKFGNRPKDENVAPFAVPRFPRTIGDYINAVASVGFRISKIEEPQPTEEACKAIPQLRRWRDLGAFLLLVIAERPKLEHHHHHH”, “soluble”.
Turning to “MGTMRIAFQGTAGAYSEEALLKVFPEAKPVGFPTFHQVFEAVEAGEAELGVVPVENTTAGSINQTYDLLLESDLHVVGEIVHRVEHCLLAPKGTTLKDLHAVKSHPQALAQCDGFLARMRLTPIPVFDTAGAAKELAEHPEPGLAAIASRRAAELYGLEVLAENIEDYPHNYTRFFVIGHKEPPRGQGPYKTSIVFAVRHRPGGLLEALSVFAEAGVNLTKLESRPRRDKPFSYLFYLDLEGHLEDPGPAQALLRLLRRVAFLKVLGSYPAHANGGVSAP”, the “soluble on expression in E. coli” value is “soluble”.
Regarding “MAHHHHHHMSRYVKYFVQAKRLDKRKRKFGQMDFLELSKELSIPFPLRERNQPKHLDLSKYLNIKVGDLVKVLYGPYKDKEGIVLNINTKRNTVIVDGCNMKKSAWNVTKKNAGSIITQEMPIHITNVAILDPISKKATVVKRRYMMHGECVRISKISGCAMPEPVSVQALKEQNNYELFIHKKKTGPPIKDIYAERDSKNFNLLKKIAYEIKRRRFYEMKNFFRDASPGKGSASPGGGSASLGEGSSSLEG”, the “soluble on expression in E. coli” value is given as “not soluble”.
Regarding “NADAQTKLQIIDLKTRLRLALPNLPGGDLRGVNFSADASQLVFYINSDTSPSNLYVHKLGSTGVKRLTNTGNPNILEDNLVEGEVVRFKSFDGLDIPGILYKPKQAEFNKVPALVFIHGGPGGQSRKGYSALVQHLVNNGYAIFKVNNRGSSGYGKTFFHLDDKKHGDHDLKDVVYNKYYLQSLDWVDKDRIGVIGGSYGGYLTMAAMAFTDEFQAGVNIFGVTNWVRTLESIPPYWEAFRKSLYDELGDPNTDKERLHNISPVFFGHQIKKPVLVVQGKNDPRVLKIESDEMVDSIRSGGTYVDYLVFDDEGHGFSKKANRIEASNKYLNFFKTQL”, the “soluble on expression in E. coli” value was “not soluble”.
With “MMEDNKMTESEMKFRDTTIRNFFDKEDRLKSIPGQKKKKLVLLEHLISKLNAENQYTEKEINTFIKQYHDDFCTIRREFIVQGFMNREDNMYCINGREVWTKWEELK” the entry was “not soluble”; with “AHHHHHHGSVRIEVVDIEKPEGVEVIIGQGNFSIFTVDDLARALLTTVPGIKFGIAMNEAKPQLTRYTGNDPELEKLAAKNALKIGAGHVFVILMKNAYPINVLNTIKNHPAVAMVYGASENPFQVIVAETELGRAVIGVVDGKAATKIETEEQKKERRELVEKIGYKID”, “not soluble”.
In the case of “MMNMITVIGFGSFGRKVVNFIKNKEPITIIDKNIDDADDLVKEGVTVIVGDATQDEVLKKAKIENADIVLILTNEPEVNRRIAERVCELSPNSYKIARAIPRYPELYMGLNIDKIINILESGAKDIAKEVEDAKLKRKLMQLKSVLIEGKKRCMKLEKTEEEKKAPLLILTHINPDPDAIASAMALKTLAERWGVDSDIAYGGNIGYDENKAMINLLGIKLLNVEDIDLDNYCVIAVIDTSTSKQLPIELPNIDIIIDHHNNTDLTAKYMDVRPEVGATASILTQYLMELDIEPSRNLATALFYGIQSDTDYFKRETSKLDFEAAAYLQSYIDASILNMIENPEISTEVMEVLAKAVMNRRVVKGNIALAYVGEISNRDALPKAADFLLKMEGISTTFVFGIVGDEIHISARTKDLRLNLGEILNKAFGGGGHQTAAAAKIPLGIFKAVSDKEALRKLVEEAIRAKILEVIGIKEEEK”, the “soluble on expression in E. coli” value is on record as “not soluble”.
The result for “MEFAKMCFEKLYGVDTSEAKEMYNSVYDVMKAMLKEYTVIFKGPNTQSSQSNPPSSTAARDIFACELAEDSNVEFERMDRSYKEMVNEIRVTDPKDELDIYLKAEVENPKTLPGMEWDVLSWWRLNSQKYPVLSEIARDVLAMQVSYVASESAFSTSGRLLEPSRSCLTHYMVETLVCLEQWLKSEIKLSENTFLTNTQLLADIELLDKLEKGNFIYVVY” reads “soluble”; that for “MERHVPEPTHTLEGWHVLHDFRLLDFARWFSAPLEAREDAWEELKGLVREWRELEEAGQGSYGIYQVVGHKADLLFLNLRPGLDPLLEAEARLSRSAFARYLGRSYSFYSVVELGSQEKPLDPESPYVKPRLTPRVPKSGYVCFYPMNKRRQGQDNWYMLPAKERASLMKAHGETGRKYQGKVMQVISGAQGLDDWEWGVDLFSEDPVQFKKIVYEMRFDEVSARYGEFGPFFVGKYLDEEALRAFLGL”, “soluble”; that for “SNAKDVLGLTLLEKTLKERLNLKDAIIVSGDSDQSPWVKKEMGRAAVACMKKRFSGKNIVAVTGGTTIEAVAEMMTPDSKNRELLFVPARGGLGEDVKNQANTICAHMAEKASGTYRLLFVPGQLSQGAYSSIIEEPSVKEVLNTIKSASMLVHGIGEAKTMAQRRNTPLEDLKKIDDNDAVTEAFGYYFNADGEVVHKVHSVGMQLDDIDAIPDIIAVAGGSSKAEAIEAYFKKPRNTVLVTDEGAAKKLLRDE”, “soluble”.
Take “MGSDKIHHHHHHMSSNALYTDLSGYYDLMCSDINYQQQSASIHRLHQFLGNNGKQHLDLACGTGPHVRHFIDLGYQCSGLDINQPMLDMAMRRCPEAQFNLQDMTAFYLEERVDLITCFLYSIHYSACIERLKSCIASVHSALNDGGLFCFNTVDKHRIDNTASVKHFAEFDGSHFAFESGWHYSGQGEKQSLKLSIAKSRLPFTEVSASPLPVSDMKGLGSLEAGLHAAGLQEVGLQELHSIEQWQDQHAMVATSFTELQELLAPYFEVHVFEHDYERIVPWDLASGNALFVCVKI”: the “soluble on expression in E. coli” value is given as “not soluble”.
